Test results: patent US20160011195A1
Each block holds one binder with its values, some of them ahead of it.

Tests used:
[1] = biological target: PLK1 (endogenous, in HeLa / HeLa-H2B-GFP cells) (human), P53350; assay: cell-based or functional assay
[2] = biological target: PLK1 PBD protein (residues 367-603) (human), P53350; assay: competitive FP, displacement of fluorescein tracer SEQ ID NO: 7 from PLK1 PBD (367-603)
[3] = biological target: PLK1 PBD protein (residues 367-603) (human), P53350; assay: competitive FP

Chain of PLK1 (endogenous, in HeLa / HeLa-H2B-GFP cells) (human), P53350 (P53350 2-603): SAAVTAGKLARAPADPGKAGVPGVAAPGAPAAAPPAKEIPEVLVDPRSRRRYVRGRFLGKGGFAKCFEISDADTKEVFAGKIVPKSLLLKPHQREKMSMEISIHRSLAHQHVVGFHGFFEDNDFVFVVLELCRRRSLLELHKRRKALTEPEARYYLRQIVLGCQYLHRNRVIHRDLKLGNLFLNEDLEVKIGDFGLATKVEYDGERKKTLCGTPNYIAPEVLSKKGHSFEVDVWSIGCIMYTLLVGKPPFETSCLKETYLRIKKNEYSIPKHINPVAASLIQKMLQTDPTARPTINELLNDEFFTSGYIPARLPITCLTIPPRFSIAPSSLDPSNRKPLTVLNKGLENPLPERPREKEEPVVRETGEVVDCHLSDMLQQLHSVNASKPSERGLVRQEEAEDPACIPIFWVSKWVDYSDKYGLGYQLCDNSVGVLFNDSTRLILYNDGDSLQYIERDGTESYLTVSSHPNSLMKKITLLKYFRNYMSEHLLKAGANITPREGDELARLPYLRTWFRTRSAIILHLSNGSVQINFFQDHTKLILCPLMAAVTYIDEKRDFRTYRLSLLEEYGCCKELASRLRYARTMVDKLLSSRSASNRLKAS
Chain of PLK1 PBD protein (residues 367-603) (human), P53350 (P53350 367-603 limits assumed): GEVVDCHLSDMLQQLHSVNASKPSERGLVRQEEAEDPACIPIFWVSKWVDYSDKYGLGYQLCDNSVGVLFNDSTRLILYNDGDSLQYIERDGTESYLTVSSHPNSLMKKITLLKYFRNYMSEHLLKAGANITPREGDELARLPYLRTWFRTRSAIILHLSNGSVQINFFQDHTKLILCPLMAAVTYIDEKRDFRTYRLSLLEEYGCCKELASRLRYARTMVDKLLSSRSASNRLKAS

B1: 3G1-S[pT]PNGL (4-ethylbenzoic acid) (Sample No. 5788) (peptide)
peptide: STPNGL
modifications: not checked
Aberrant mitoses @ 24 hr [1]: 47.9% | Apoptosis @24 hr, 30 mM [1]: 36.2% | proportion of viable cells after 24 hours, 30 µM (Annexin V/PI) [1]: 64% | relative fluorescence intensity of PLK1 staining at centrosomes (10 µM, HeLa-H2B-GFP) (arbitrary fluorescence units) [1]: 32

B2: Sample No. 5792, fragment ligated inhibitor (4-(Methylamino) benzoic acid) (peptide)
peptide: STPNGL
modifications: not checked
IC50 [2]: 31.2 µM

B3: Sample No. 5754, fragment ligated inhibitor (4-methoxybenzoic acid) (peptide)
peptide: STPNGL
modifications: not checked
IC50 [2]: 125 µM

B4: Sample No. 5830, fragment ligated inhibitor (4-(Propylamino) benzoic acid) (peptide)
peptide: STPNGL
modifications: not checked
IC50 [2]: 16.5 µM

B5: Ac-LLCS[pT]PNGL (sample no. 5821) (peptide)
peptide: LLCSTPNGL
modifications: not checked
fraction of viable cells after 24 hours, 30 µM (Annexin V/PI) [1]: 57%

B7: Sample No. 5604, fragment ligated inhibitor (peptide)
peptide: STPNGL
modifications: not checked
IC50 [2]: 300 µM

B8: LLCS[pT]PNGL, native phospho-CDC25c PBD binding sequence (sample no. 292) (peptide)
peptide: LLCSTPNGL
modifications: not checked
aberrant prometaphase/metaphase features (30 µM) [1]: 25% | relative fluorescence intensity of PLK1 staining at centrosomes (HeLa-H2B-GFP) (arbitrary fluorescence units) [1]: 45

B10: Sample No. 5593, fragment ligated inhibitor (peptide)
peptide: STPNGL
modifications: not checked
IC50 [2]: 380 µM

B11: Sample No. 5786, fragment ligated inhibitor (4-ethoxybenzoic acid) (peptide)
peptide: STPNGL
modifications: not checked
IC50 [2]: 64.7 µM

B13: Ac-PLHS[pT]A (sample no. 5743) (peptide)
peptide: PLHSTA
modifications: not checked
Aberrant mitoses @ 24 hr, 30 mM [1]: 40.3% | Apoptosis @24 hr [1]: 34% | cells with mitotic abnormalities (10 µM) [1]: 32% | relative fluorescence intensity of PLK1 staining at centrosomes (30 µM, HeLa-H2B-GFP) (arbitrary fluorescence units) [1]: 33

B16: Sample No. 5601, fragment ligated inhibitor (peptide)
peptide: STPNGL
modifications: not checked
IC50 [2]: 400 µM

B17: Ac-LHS[pT]AI (sample no. 5781) (peptide)
peptide: LHSTAI
modifications: not checked
aberrant metaphase (30 µM) [1]: 23% | decrease of the percentage of viable cells, 24 hours, 30 µM (Annexin V/PI) [1]: 30% | relative fluorescence intensity of PLK1 staining at centrosomes (30 µM, HeLa-H2B-GFP) (arbitrary fluorescence units) [1]: 35

B18: Sample No. 5591, fragment ligated inhibitor (peptide)
peptide: STPNGL
modifications: not checked
IC50 [2]: 375 µM

B20: Sample No. 5600, fragment ligated inhibitor (peptide)
peptide: STPNGL
modifications: not checked
IC50 [2]: 550 µM

B21: Sample No. 5597, fragment ligated inhibitor (peptide)
peptide: STPNGL
modifications: not checked
IC50 [2]: 500 µM

B23: … (sample no. 345) (peptide)
peptide: LLCSEPNGL
modifications: not checked
IC50 [2]: 350 µM | fold less potent (than the phosphothreonine sequence) [3]: 1000 fold

More lines, main results first:

IC50 [2]: 10.8 µM
B6: Sample No. 5826, fragment ligated inhibitor (4-propylbenzoic acid) (peptide)
peptide: STPNGL
modifications: not checked

IC50 [2]: 18.5 µM
B9: Sample No. 5791, fragment ligated inhibitor (4-(Methylthio) benzoic acid) (peptide)
peptide: STPNGL
modifications: not checked

Aberrant mitoses @ 24 hr [1]: 53.8% | Apoptosis @24 hr [1]: 55.5%
B12: 3G2-S[pT]PNGL (4-butylbenzoic acid) (Sample No. 5827) (peptide)
peptide: STPNGL
modifications: not checked
proportion of viable cells after 24 hours, 30 µM (Annexin V/PI) [1]: 45%

IC50 [2]: 104 µM
B14: Sample No. 5753, fragment ligated inhibitor (peptide)
peptide: STPNGL
modifications: not checked

aberrant prometaphase/metaphase features (30 µM) [1]: 9.5%
B15: … (sample no. 5783) (peptide)
peptide: LLAAAPNGL
modifications: not checked

IC50 [2]: 600 µM
B19: Sample No. 5599, fragment ligated inhibitor (peptide)
peptide: STPNGL
modifications: not checked

IC50 [2]: 500 µM
B22: Ac-PLHSEA (sample no. 5744) (peptide)
peptide: PLHSEA
modifications: not checked

IC50 [2]: 475 µM
B24: Sample No. 5595, fragment ligated inhibitor (peptide)
peptide: STPNGL
modifications: not checked
